# Experimental data as given in US20130225493A1 (HEPACORE, published 2013).
# T1: FGFR4 extracellular domain, immobilized (R4-Fc) (UniProt P22455 22-369)
# T1 construct: extracellular domain; also called FDCPR4-Fc
# T1 sequence (looked up): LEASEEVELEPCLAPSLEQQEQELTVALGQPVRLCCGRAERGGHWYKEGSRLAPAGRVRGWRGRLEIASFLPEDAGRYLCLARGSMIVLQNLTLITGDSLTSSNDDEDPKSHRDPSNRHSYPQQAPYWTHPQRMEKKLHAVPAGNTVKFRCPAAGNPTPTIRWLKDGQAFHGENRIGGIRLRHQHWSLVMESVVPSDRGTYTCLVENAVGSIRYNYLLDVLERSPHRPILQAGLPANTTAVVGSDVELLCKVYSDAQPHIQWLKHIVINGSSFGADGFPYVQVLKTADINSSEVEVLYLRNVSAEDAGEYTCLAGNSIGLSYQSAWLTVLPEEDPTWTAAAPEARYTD
# Assays:
# [1] = target: T1, FGFR4 extracellular domain, immobilized …; assay: functional ELISA on immobilized FGFR
# [2] = target: T1, FGFR4 extracellular domain, immobilized …; assay: ELISA: biotinylated ligand on immobilized FGFR-Fc, HRP-streptavidin
# Method: FIGS. 2A-2D. […] (2A) FGFR1; (2B) FGFR2; (2C) FGFR3 and (2D) FGFR4. Biotinylated FGF-18 (♦) and three FGF-18 variants (Δ37, v1,; Δ45, v2, (▪); and Δ51, v3, (▪)) were added at increasing concentrations to FGFR1-4 anchored to a MaxiSorp ELISA plate. Bound ligands were detected by HRP-streptavidin. Data are the average of duplicate wells.
# FGF-18 and the N-terminal truncated variants (FGF-18^Δ37, FGF-18^Δ45 and FGF-18^Δ51) were tested for receptor specificity by binding to immobilized extracellular domain of FGFR1-4 (FIG. 2). Biotinylated FGF's were added at increasing concentrations to FGFR1-4 anchored to a MaxiSorp ELISA plate. Bound ligands were detected by HRP-streptavidin. […] The variants of the present invention are thus shown to be specific for FGFR3-4.
EC50 [1],EC50 [2],Binder
8.28 ng/mL,5.86 ng/mL,"FGF-18^Δ37 (ligand, biotinylated in the immobilized receptor assays (sites not given), E. coli expressed; Numbering includes the signal peptide (1-27); also called v1) MENQTRARDDVSRKQLRLYQLYSRTSGKHIQVLGRRISARGEDGDKYAQLLVETDTFGSQVRIKGKETEFYLCMNRKGKLVGKPDGTSKECVFIEKVLENNYTALMSAKYSGWYVGFTKKGRPRKGPKTRENQQDVHFMKRYPKGQPELQKPFKYTTVTKRSRRIRPTHPA"
7.11 ng/mL,,"FGF-18^Δ33 (ligand, biotinylation not stated for the functional ELISA of Table 4, E. coli expressed; Numbering includes the signal peptide (1-27)) MRIHVENQTRARDDVSRKQLRLYQLYSRTSGKHIQVLGRRISARGEDGDKYAQLLVETDTFGSQVRIKGKETEFYLCMNRKGKLVGKPDGTSKECVFIEKVLENNYTALMSAKYSGWYVGFTKKGRPRKGPKTRENQQDVHFMKRYPKGQPELQKPFKYTTVTKRSRRIRPTHPA"
,8.1 ng/mL,"FGF-18^Δ45 (ligand, biotinylated in the immobilized receptor assays (sites not given), E. coli expressed; Numbering includes the signal peptide (1-27); also called v2) MDVSRKQLRLYQLYSRTSGKHIQVLGRRISARGEDGDKYAQLLVETDTFGSQVRIKGKETEFYLCMNRKGKLVGKPDGTSKECVFIEKVLENNYTALMSAKYSGWYVGFTKKGRPRKGPKTRENQQDVHFMKRYPKGQPELQKPFKYTTVTKRSRRIRPTHPA"
10.6 ng/mL,9.93 ng/mL,"FGF-18^Δ51 (ligand, biotinylated in the immobilized receptor assays (sites not given), E. coli expressed; Numbering includes the signal peptide (1-27); also called v3) MLRLYQLYSRTSGKHIQVLGRRISARGEDGDKYAQLLVETDTFGSQVRIKGKETEFYLCMNRKGKLVGKPDGTSKECVFIEKVLENNYTALMSAKYSGWYVGFTKKGRPRKGPKTRENQQDVHFMKRYPKGQPELQKPFKYTTVTKRSRRIRPTHPA"
9.36 ng/mL,,"FGF-18^Δ31 (ligand, biotinylation not stated for the functional ELISA of Table 4, E. coli expressed) MDFRIHVENQTRARDDVSRKQLRLYQLYSRTSGKHIQVLGRRISARGEDGDKYAQLLVETDTFGSQVRIKGKETEFYLCMNRKGKLVGKPDGTSKECVFIEKVLENNYTALMSAKYSGWYVGFTKKGRPRKGPKTRENQQDVHFMKRYPKGQPELQKPFKYTTVTKRSRRIRPTHPA"
10.2 ng/mL,9.23 ng/mL,"FGF-18 (recombinant wild type, mature form without the signal peptide) (ligand, biotinylated in the immobilized receptor assays (sites not given), Expressed in E. coli from pET9a and purified on heparin Sepharose; also called FGF-18 wild type; F18 w.t) MENVDFRIHVENQTRARDDVSRKQLRLYQLYSRTSGKHIQVLGRRISARGEDGDKYAQLLVETDTFGSQVRIKGKETEFYLCMNRKGKLVGKPDGTSKECVFIEKVLENNYTALMSAKYSGWYVGFTKKGRPRKGPKTRENQQDVHFMKRYPKGQPELQKPFKYTTVTKRSRRIRPTHPA"
